Drawing on patent US20170298425, this text covers activity for two substances.

Holding throughout (assay): cell_activity
Series [1] concerns the target TcI38 (bacteriophage lambda) (UniProt P03034). As to conditions: GFP derepression fold change 32.4 to 40 C, E. coli; SEM 160.
In series [2] the target is TcI42 (bacteriophage lambda) (UniProt P03034). The settings on record: GFP derepression fold change 32.4 to 45.7 C, E. coli; SEM 444.
In series [3] the target is TcI (cI857, A67T) (bacteriophage lambda) (UniProt P03034). The settings on record: GFP derepression fold change 34.2 to 40 C, E. coli; SEM 404; text gives >1432.
The test system of series [4] is TlpA (in cell) (Salmonella enterica). As to conditions: GFP derepression fold change 31.4 to 44.6 C, E. coli; SEM 45.
For series [5], the system named is TlpA39 (Salmonella enterica). The settings on record: GFP derepression fold change 31.4 to 44.6 C, E. coli; SEM 434.
Series [6] concerns TlpA36 (Salmonella enterica). The settings on record: GFP derepression fold change 31.4 to 44.6 C, E. coli; SEM 63.

Turning to lambda tandem pR/pL operator/promoter, the figures for the activity in series [1], in series [2] and in series [3] were 1030 fold, 1690 fold and 1430 fold, respectively.

With pTlpA operator/promoter, 52 bp, the activity in series [4] worked out at 355 fold; in series [5], 1520 fold; in series [6] it was 370 fold.
